We go through 3 molecules from patent US20240352434, “COMPOSITIONS COMPRISING A VARIANT CAS12I3 POLYPEPTIDE AND USES THEREOF” (Arbor Biotechnologies, Inc., published 2024).

Where a chain is given by its changes, count along the chain named.

B1: EMX1_T5 crRNA ; EMX1_T5 target (ssRNA ; dsDNA)
RNA: AUAGUGUGUCCUUAGUUGACAUUAUUAUUCCCAUAGGGAAGG
DNA 1: TATTATTCCCATAGGGAAGG
DNA 2: CCTTCCCTATGGGAATAATA
B2: AAVS1_T3 crRNA ; AAVS1_T3 target (ssRNA ; dsDNA)
RNA: AUAGUGUGUCCUUAGUUGACAUGUGAGAAUGGUGCGUCCUAG
DNA 1: GTGAGAATGGTGCGTCCTAG
DNA 2: CTAGGACGCACCATTCTCAC
B3: VEGFA_T2 crRNA ; VEGFA_T2 target (ssRNA ; dsDNA)
RNA: AUAGUGUGUCCUUAGUUGACAUAAUCCUCCACCAGUCAUGGU
DNA 1: AATCCTCCACCAGTCATGGT
DNA 2: ACCATGACTGGTGGAGGATT

One data set concerns the target T1, Cas12i3 R565G (Unidentified, R565G).
T1 chain: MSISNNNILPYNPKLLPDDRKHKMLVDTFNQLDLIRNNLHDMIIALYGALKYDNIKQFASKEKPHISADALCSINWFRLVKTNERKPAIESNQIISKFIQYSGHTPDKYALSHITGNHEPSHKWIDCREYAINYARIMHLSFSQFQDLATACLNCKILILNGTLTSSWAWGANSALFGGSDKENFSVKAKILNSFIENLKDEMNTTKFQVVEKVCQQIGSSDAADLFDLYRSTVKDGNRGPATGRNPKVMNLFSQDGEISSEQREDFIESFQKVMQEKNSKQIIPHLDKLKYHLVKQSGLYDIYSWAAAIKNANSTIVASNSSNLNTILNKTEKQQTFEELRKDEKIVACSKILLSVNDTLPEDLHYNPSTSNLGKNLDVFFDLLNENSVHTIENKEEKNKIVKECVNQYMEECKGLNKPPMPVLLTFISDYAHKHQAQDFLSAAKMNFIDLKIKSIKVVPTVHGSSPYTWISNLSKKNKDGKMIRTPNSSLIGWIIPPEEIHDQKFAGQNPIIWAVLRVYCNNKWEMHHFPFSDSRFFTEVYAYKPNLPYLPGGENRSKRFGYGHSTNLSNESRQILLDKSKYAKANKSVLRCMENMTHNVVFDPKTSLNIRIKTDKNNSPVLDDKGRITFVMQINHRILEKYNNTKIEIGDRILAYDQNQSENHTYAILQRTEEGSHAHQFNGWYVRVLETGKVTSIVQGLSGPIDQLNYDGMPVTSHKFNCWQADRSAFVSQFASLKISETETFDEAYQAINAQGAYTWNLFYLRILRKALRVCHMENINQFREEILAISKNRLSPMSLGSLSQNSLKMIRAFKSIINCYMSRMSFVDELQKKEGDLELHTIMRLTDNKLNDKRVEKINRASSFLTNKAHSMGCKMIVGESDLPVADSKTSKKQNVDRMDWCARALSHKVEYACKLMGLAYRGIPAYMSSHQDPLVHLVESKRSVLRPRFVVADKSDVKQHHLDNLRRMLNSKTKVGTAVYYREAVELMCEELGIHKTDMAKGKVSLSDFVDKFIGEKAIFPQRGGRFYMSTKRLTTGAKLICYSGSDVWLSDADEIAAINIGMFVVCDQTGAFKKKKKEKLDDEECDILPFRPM
Description: cell_activity; fold change in % indels, HEK293T; PAM not stated in example. The method, then: (§1) Approximately 16 hours prior to transfection, 100 μl of 25,000 HEK293T cells in DMEM/10% FBS+Pen/Strep were plated into each well of a 96-well plate. On the day of transfection, the cells were 70-90% confluent. For each well to be transfected, a mixture of 0.5 μl of Lipofectamine 2000 and 9.5 μl of Opti-MEM was prepared and then incubated at room temperature for 5-20 minutes (Solution 1). […] In the case of negative controls, the crRNA was not included in Solution 2. The solution 1 and solution 2 mixtures were mixed by pipetting up and down and then incubated at room temperature for 25 minutes. Following incubation, 20 μL of the Solution 1 and Solution 2 mixture were added dropwise to each well of a 96 well plate containing the cells. 72 hours post transfection, cells are trypsinized by adding 10 μL of TrypLE to the center of each well and incubated for approximately 5 minutes. 100 μL of D10 media was then added to each well and mixed to resuspend cells. The cells were then spun down at 500 g for 10 minutes, and the supernatant was discarded. QuickExtract buffer was added to ⅕ the amount of the original cell suspension volume. Cells were incubated at 65° C. for 15 minutes, 68° C. for 15 minutes, and 98° C. for 10 minutes.
(§2) Samples for Next Generation Sequencing were prepared by two rounds of PCR. The first round (PCR1) was used to amplify specific genomic regions depending on the target. PCR1 products were purified by column purification. Round 2 PCR (PCR2) was done to add Illumina adapters and indexes. Reactions were then pooled and purified by column purification. Sequencing runs were done with a 150 cycle NextSeq v2.5 mid or high output kit.
Turning to B1, the binding signal is 1.21 fold of wild-type.

As for B2, the binding signal was 1.86 fold of wild-type.

On to B3, for which the binding signal was 0.73 fold of wild-type.

The target in the next data set is T2, Cas12i3 S801R (Unidentified, S801R).
T2 chain: T1 chain with G565R, S801R
Described as above. How it is done:
as §1, §2
For the molecule B1, the binding signal is 1.44 fold of wild-type.

Regarding B2, the binding signal was 2.2 fold of wild-type.

Consider B3, for which the binding signal is 1.74 fold of wild-type.
